Source: patent US20220153818A1 (UNIVERSITY COURT OF THE UNIVERSITY OF ABERDEEN, published 2022)

T1: Recombinant Hyr1 N-terminus fragment (amino acids 63-350) with N-terminal 6xHis tag (Candida albicans, UniProt Q5AL03 63-350)
T1 sequence: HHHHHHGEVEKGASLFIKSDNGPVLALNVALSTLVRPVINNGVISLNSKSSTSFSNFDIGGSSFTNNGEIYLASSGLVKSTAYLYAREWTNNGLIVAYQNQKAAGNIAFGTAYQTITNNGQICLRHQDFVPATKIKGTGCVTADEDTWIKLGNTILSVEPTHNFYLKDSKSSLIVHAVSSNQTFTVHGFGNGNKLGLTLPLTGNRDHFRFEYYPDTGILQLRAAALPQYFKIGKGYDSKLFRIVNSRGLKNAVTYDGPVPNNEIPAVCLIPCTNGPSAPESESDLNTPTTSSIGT


Legend:
[1] = molecular target: T1, Recombinant Hyr1 N-terminus fragment …; assay: ELISA, plate coated with recombinant Hyr1 N-terminus, titrated IgG1
human serum albumin = molecular target: T2, human serum albumin (human, UniProt P02768 25-609); assay: ELISA
T2 construct: also called HSA
T2 sequence (P02768 25-609 limits assumed): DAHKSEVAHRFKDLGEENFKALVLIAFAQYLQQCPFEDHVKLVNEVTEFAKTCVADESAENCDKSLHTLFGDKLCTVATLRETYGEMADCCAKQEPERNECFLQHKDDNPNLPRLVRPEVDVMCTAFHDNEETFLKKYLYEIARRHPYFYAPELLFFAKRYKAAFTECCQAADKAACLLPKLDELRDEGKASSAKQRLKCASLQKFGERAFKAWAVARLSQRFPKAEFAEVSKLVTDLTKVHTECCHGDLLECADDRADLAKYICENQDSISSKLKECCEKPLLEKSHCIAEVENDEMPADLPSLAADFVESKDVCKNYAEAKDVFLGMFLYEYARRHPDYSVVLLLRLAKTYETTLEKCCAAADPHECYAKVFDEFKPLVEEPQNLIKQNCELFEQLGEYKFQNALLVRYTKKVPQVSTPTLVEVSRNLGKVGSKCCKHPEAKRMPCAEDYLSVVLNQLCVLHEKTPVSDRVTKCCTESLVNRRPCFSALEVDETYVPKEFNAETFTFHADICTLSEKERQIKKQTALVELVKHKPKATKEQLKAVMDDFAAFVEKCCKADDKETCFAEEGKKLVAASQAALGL

Row | Binder | EC50 [1] [µg/mL] | binding result (human serum albumin)
1 | AB122 (antibody, V domains shown, also called 06-AB-122; anti-Hyr1 mAb AB122) VH: EVQLVQSGGGLAQPGRSLRLSCAASGFGFDDFAMHWVRQPPGKGLEWVSGLTWNGGSIDYAGSVRGRFTISRDNAKNSLFLQMNSLRAEDTALYYCAKGLSGGTMAPFDIWGQGTMVSVSS VL: QAGLTQPPSVSVAPGQTATIPCGGNNIGSKHVHWYQQKPGQAPVAVVYDDSDRPSGVPERFSGSNSGNTATLTISSVEAGDEADYYCQVWDRSSDHFWLFGGGTRLTVL | 0.0496 | no binding
2 | AB120 (antibody, V domains shown, also called 06-AB-120; anti-Hyr1 mAb AB120) VH: EVQLVQSGGGLVQPGGSLGLSCAASGFIFTSYAMTWVRQAPGKGLEWVSVITGNVGTSYYADSVKGRFTISRDNSKKTVSLQMNSLRAEDTAIYYCVKTRYDFSSGYYFDDWGQGTLVSVSS VL: DIVMTQSPSSVSASVGDKVTITCRASQGISRWLAWYQQKPGEAPELLIYAASSLQSGVPSRFSGSGSGTDFTLTISSLQPEDFATYYCQQANSFPITFGQGTRLQIK | 0.104 | no binding
3 | AB123 (antibody, V domains shown, also called 06-AB-123; anti-Hyr1 mAb AB123) VH: EVQLLESGGGVVQPGRSLRLSCAASGFTFSNYGMHWVRQAPGKGLEWVAVVWFDGSYKYYTDSVKGRFTISRDNSKSTLYLQMNSLRAEDTAVYYCVSPIMTSAFDIWGPGTMVSVSS VL: QLVLTQPPSASGSPGQSVTISCTGTSSDVGGSNFVSWYQHHPGKAPKLMIYEVSQRPSGVPDRFSGSKSGNTASLTVSGLQADDEADYYCSSYAGSVVLFGGGTKLTVL | 0.0533 | no binding
4 | AB121 (antibody, V domains shown, also called 06-AB-121; anti-Hyr1 mAb AB121) VH: EVQLVESGGTLVQPGGSLRLSCAASGFTFSDYWMNWVRQAPGKGLEWVANIKQDGSEKYYVDSLRGRVTISRDNAQNSVFLQMHSLSVEDTAVYYCARDGYTFGPATTELDHWGRGTLVSVSS VL: QLVLTQPPSVSVSPGQTASITCSGDELRNKYTSWYQQKSGQSPVLVIYQDNNRPSGIPERFSGSQSGDTATLTISGTQAVDEADYYCQAWVSQTLVFGGGTKLTVL | 0.0765 | no binding
